Assay [1] concerns the target T1, TP-25 peptide (human).
T1 sequence (peptide, biotinylated): VMDVFIPKPFRAFAF
Briefly: indirect ELISA, biotinylated 15-mer on streptavidin plate.

The target of assay [2] is T2, TP-24 peptide (human).
T2 sequence (peptide, biotinylated): REFFSQYGDVMDVFI
Described as above.

Seven molecules from patent US20230340090A1 can be followed below.

B1: ACI-7062-410H3-Ab1 (antibody, IgG1, V domains shown)
VH: DVQLVESGGGLVQPGGSRRLSCAASGFTFSSFGMHWVRQAPEKGLEWVAYIRSGSDIIYYADSVKGRFTISRDNPENTLFLQMTSLRSEDTAMYYCARSGTTVPFDYWGQGTSLTVSS
VL: DIVMTQSPSSLAMSVGQKVTMSCKSSQSLLNSGNQKNYLAWYQQKPGQSPELLLYFASTRASGVPDRFIGSGSGTDFTLTISSVQAEDLADYFCQQHYSIPLTFGAGTKLELKR
As to B1, the OD (O.D. (405 nm)) was determined as 0.8 in assay [1] and 3.8 in assay [2].

B2: ACI-7062-401A2-Ab2 (antibody, IgG1, V domains shown)
VH: DVQLVESGGGLVQPGGSRRLSCAASGFTFSRFGMHWVRQAPEKGLEWVAYIRSGSDIIYYADSVKGRFTISRDNPENTLFLQMTSLRSEDTAMYYCARSGTTVPFDYWGQGTSLTVSS
VL: DIVMTQSPSSLAMSVGQKVTMSCKSSQSLLNSGDQKNYLAWYQQKPGQSPELLLYFASTRASGVPDRFIGSGSGTDFSLTISSVQAEDLADYFCQQHYSIPLTFGAGTKLELKR
For the molecule B2, the OD (O.D. (405 nm)) in assay [1] worked out at 1; in assay [2], 2.5.

B3: ACI-7062-412E12-Ab1 (antibody, IgG1, V domains shown)
VH: DVQLVESGGGLVQPGGSRRLSCAASGFTFSRFGMHWVRQAPEKGLEWVAYIRSGSDIIYYADSVKGRFTISRDNPENTLFLQMTSLRSEDTAMYYCARSGTTVPFDYWGQGTSLTVSS
VL: DIVMTQSPSSLAMSVGQKVTMSCKSSQSLLNSGDQKNYLAWYQQKPGQSPELLLYFASTRASGVPDRFIGSGSGTDFSLTISSVQAEDLADYFCQQHYSIPLTFGAGTKLELKR
Turning to B3, the results for the OD (O.D. (405 nm)) in assay [1] and in assay [2] were 1.2 and 3.2, respectively.

B4: ACI-7062-412A7-Ab1 (antibody, IgG2b, V domains shown)
VH: DVQLVESGGGLVQPGGSRRLSCAASGFTFSSFGMHWVRQAPEKGLEWVAYIRSGSDIIYYADSVKGRFTISRDNPENTLFLQMTSLRSEDTAMYYCARSGTTVPFDYWGQGTSLTVSS
VL: DIVMTQSPSSLAMSVGQKVTMSCKSSQSLLNSGNQKNYLAWYQQKPGQSPELLLYFASTRASGVPDRFIGSGSGTDFTLTISSVQAEDLADYFCQQHYSIPLTFGAGTKLELKR
For B4, the results for the OD (O.D. (405 nm)) in assay [1] and in assay [2] were 1.4 and 4, respectively.

B5: ACI-7062-404D6-Ab2 (antibody, IgG3, V domains shown)
VH: QVTLKESGPGILQPSQTLSLTCSFSGFSLSTYGIGVGWIRQPSGKGLEWLAHIWWNDYKYYNTALKSRLTISKDTSNNRVFLKIASVDTADTATYYCARVYGNLYYFDYWGQGTTLTVSS
VL: DVLMTQTPLSLPVSLGDQASISCRSSQSIVHGSGNTYLEWYLQKPGQSPKLLIYKVSNRFSGVPDRFSGSGSGTDFTLRISRVEAEDLGVYYCFQGSHVPTFGAGTKLELKR
For B5, the OD (O.D. (405 nm)) in assay [1] came to 0.9; in assay [2], 4.

B6: ACI-7062-416A11-Ab1 (antibody, IgG2a, V domains shown)
VH: QVTLKESGPGILQSSQTLSLTCSFSGFSLSTYGIGVGWIRQPSGKGLEWLAHIWWNDNKYYNTALKSRLTISKDTSNNQVFLKIASVDTADAATYYCARVYGNLYYFGYWGQGTTLTVSS
VL: DVLMTQTPLSLPVSLGDRASISCRSSQSIVHSSGNTYLEWYLQKPGQSPKLLIYKVSNRFSGVPDRFSGSGSGTDFTLKISRVEAEDLGVYYCFQGSRVPTFGAGTKLELKR
On to B6, for which the OD (O.D. (405 nm)) in assay [1] stood at 0.9; in assay [2] it was 2.9.

B7: ACI-7062-415C4-Ab1 (antibody, IgG1, V domains shown)
VH: QVTLKESGPGILQPSQTLSLTCSFSGFSLSTYGIGVGWIRQPSGKGLEWLAHIWWNDNKYYKTALKSRLTISKDTSNNQVFLKIASVDTADSATYYCARVYGNLYYFGYWGQGTTLTVSS
VL: DVLMTQTPLSLPVSLGDQASISCRSSQSIVHSTGNTYLEWYLQKPGQSPKLLIYKVSNRFSGVPDRFSGSGSGTDFTLKISRVEAEDLGVYYCFQGSRVPTFGAGTKLELKR
For the molecule B7, the OD (O.D. (405 nm)) in assay [1] worked out at 1.2; in assay [2], 3.8.
